Article PMC11276004

How the values were obtained:
[1] = biological target: YPet (Yellow fluorescent Protein for energy transfer); assay: AUC; sedimentation velocity on cleared bacterial lysates of expressing cultures, detection at 515 nm; 4.6 μM YPet in 14.3 mg/mL lysate, 6.2 μM mCLIFY in 13.7 mg/ml lysate
[2] = biological target: YPet (Yellow fluorescent Protein for energy transfer); assay: SEC-MALS; in line with SAXS; 100 μl of 260 μM YPet or 230 μM mCLIFY injected, Shodex 804 column, PBS, room temperature; 53 μM (YPet) and 48 μM (mCLIFY) at peak
[3] = biological target: YPet (Yellow fluorescent Protein for energy transfer); assay: SEC-SAXS; synchrotron SAXS in line with SEC; 260 μM YPet or 230 μM mCLIFY injected, PBS, room temperature; SVD-EFA, mass from Qr and Porod
[4] = biological target: YPet (Yellow fluorescent Protein for energy transfer); assay: AUC; sedimentation velocity, purified protein, 20 °C, PBS, 2-40 μM monomer, 40,000 rpm; c(s) fits in SEDFIT; monomer-dimer association model in SEDPHAT; constant is of dimer to monomers

In the case of “YPet (Yellow fluorescent Protein for energy transfer)”, the stoichiometry N [1] is reported as 2, the stoichiometry N [2] is reported as 2 and the stoichiometry N [3] is reported as 2. For the same substance, the Kd [4] was 3.4 µM and the stoichiometry N [4] was 2.
